Laboratory results taken from the Immune Epitope Database (IEDB).
Each block holds one sequence with its values, some of them ahead of it.

How the values were obtained:
HLA-A*03:01 = assay: IEDB peptide-MHC binding, purified MHC/competitive/fluorescence; filed as Kd, often an IC50 or EC50 that approximates it; ≥ and ≤ were set here for values at or beyond the usual limits of such assays
HLA-A*02:12 = assay: as above
HLA-A*02:16 = assay: as above
HLA-B*39:01 = assay: as above
HLA-B*46:01 [1] = assay: as above
HLA-B*27:03 = assay: as above
HLA-A*02:01 = assay: as above
HLA-A*02:03 = assay: as above
HLA-B*51:01 = assay: as above
HLA-B*57:01 = assay: as above
HLA-A*68:02 = assay: as above
HLA-A*02:19 = assay: as above
HLA-A*02:11 = assay: as above
HLA-B*15:01 [2] = assay: as above
HLA-A*29:02 = assay: as above
HLA-B*18:01 = assay: as above
HLA-A*24:03 = assay: as above
HLA-A*69:01 = assay: as above
HLA-B*15:17 = assay: as above; conditions: source organism: Cryptosporidium parvum Iowa II
HLA-A*23:01 = assay: as above
HLA-A*26:01 = assay: as above
HLA-B*46:01 [3] = assay: IEDB peptide-MHC binding, purified MHC/direct/fluorescence; filed as Kd, often an IC50 or EC50 that approximates it; ≥ and ≤ were set here for values at or beyond the usual limits of such assays; conditions: source organism: Escherichia coli O157:H7
HLA-B*35:01 = assay: as above; conditions: source organism: Escherichia coli O157:H7 str. EC869
HLA-B*07:02 [4] = assay: as above; conditions: source organism: Escherichia coli O157:H7 str. EC869
HLA-B*15:02 = assay: as above; conditions: source organism: Escherichia coli O157:H7 str. EC869
HLA-B*15:01 [5] = assay: as above; conditions: source organism: Escherichia coli O157:H7
HLA-A*24:02 = assay: IEDB peptide-MHC binding, purified MHC/competitive/fluorescence; filed as Kd, often an IC50 or EC50 that approximates it; ≥ and ≤ were set here for values at or beyond the usual limits of such assays; conditions: source organism: Pseudomonas aeruginosa UCBPP-PA14
HLA-A*11:01 = assay: as above; conditions: source organism: Pseudomonas aeruginosa UCBPP-PA14
HLA-B*40:01 = assay: as above; conditions: source organism: Pseudomonas aeruginosa UCBPP-PA14
HLA-B*58:01 = assay: as above; conditions: source organism: Pseudomonas aeruginosa UCBPP-PA14
HLA-B*08:01 = assay: as above; conditions: source organism: Pseudomonas aeruginosa UCBPP-PA14
HLA-B*07:02 [6] = assay: as above; conditions: source organism: Pseudomonas aeruginosa UCBPP-PA14
HLA-A*01:01 = assay: as above; conditions: source organism: Pseudomonas aeruginosa UCBPP-PA14
HLA-A*31:01 = assay: as above; conditions: source organism: Pseudomonas aeruginosa UCBPP-PA14
HLA-A*30:01 = assay: as above; conditions: source organism: Pseudomonas aeruginosa UCBPP-PA14
HLA-B*27:05 = assay: as above; conditions: source organism: Pseudomonas aeruginosa UCBPP-PA14
[7] = source organism: Giardia lamblia ATCC 50803
[8] = source organism: Cryptosporidium parvum Iowa II
[9] = source organism: Entamoeba dispar SAW760
[10] = source organism: Pseudomonas aeruginosa UCBPP-PA14

Sequence: ELLDHLLLF
Kd (HLA-A*03:01; [7]): ≥ 20 µM | Kd (HLA-A*02:12; [7]): ≥ 20 µM | Kd (HLA-A*02:16; [7]): ≥ 20 µM | Kd (HLA-B*39:01; [7]): ≥ 20 µM | Kd (HLA-B*46:01 [1]; [7]): ≥ 20 µM | Kd (HLA-B*27:03; [7]): ≥ 20 µM | Kd (HLA-A*02:01; [7]): ≥ 20 µM | Kd (HLA-A*02:03; [7]): ≥ 20 µM | Kd (HLA-B*51:01; [7]): ≥ 20 µM | Kd (HLA-B*57:01; [7]): ≥ 20 µM | Kd (HLA-A*68:02; [7]): ≥ 20 µM | Kd (HLA-A*02:19; [7]): 0.98 µM | Kd (HLA-A*02:11; [7]): ≥ 20 µM | Kd (HLA-B*15:01 [2]; [7]): ≥ 20 µM | Kd (HLA-A*29:02; [7]): 0.0161 µM | Kd (HLA-B*18:01; [7]): ≥ 20 µM

Sequence: RLKHIFLIF
Kd (HLA-A*03:01; [8]): ≥ 20 µM | Kd (HLA-A*02:12; [8]): ≥ 20 µM | Kd (HLA-A*02:16; [8]): ≥ 20 µM | Kd (HLA-B*39:01; [8]): ≥ 20 µM | Kd (HLA-B*46:01 [1]; [8]): ≥ 20 µM | Kd (HLA-B*27:03; [8]): ≥ 20 µM | Kd (HLA-A*24:03; [8]): ≥ 20 µM | Kd (HLA-A*02:01; [8]): ≥ 20 µM | Kd (HLA-A*69:01; [8]): ≥ 20 µM | Kd (HLA-A*02:03; [8]): ≥ 20 µM | Kd (HLA-B*15:17): ≥ 20 µM | Kd (HLA-A*23:01; [8]): ≥ 20 µM | Kd (HLA-B*51:01; [8]): ≥ 20 µM | Kd (HLA-B*57:01; [8]): ≥ 20 µM | Kd (HLA-A*68:02; [8]): ≥ 20 µM | Kd (HLA-A*02:19; [8]): ≥ 20 µM | Kd (HLA-A*26:01; [8]): ≥ 20 µM | Kd (HLA-A*02:11; [8]): ≥ 20 µM | Kd (HLA-A*29:02; [8]): ≥ 20 µM | Kd (HLA-B*18:01; [8]): ≥ 20 µM

Kd (HLA-B*46:01 [3]): ≥ 20 µM | Kd (HLA-B*35:01): 0.01 µM | Kd (HLA-B*07:02 [4]): 2.21 µM | Kd (HLA-B*15:02): 0.013 µM | Kd (HLA-B*15:01 [5]): 0.107 µM
Sequence: NIAAPYLPF

Sequence: KGFFRVFKK
Kd (HLA-A*03:01; [9]): 0.0049 µM | Kd (HLA-A*02:12; [9]): ≥ 20 µM | Kd (HLA-A*02:16; [9]): ≥ 20 µM | Kd (HLA-B*39:01; [9]): ≥ 20 µM | Kd (HLA-B*46:01 [1]; [9]): ≥ 20 µM | Kd (HLA-A*24:03; [9]): ≥ 20 µM | Kd (HLA-A*02:01; [9]): ≥ 20 µM | Kd (HLA-A*69:01; [9]): ≥ 20 µM | Kd (HLA-A*02:03; [9]): ≥ 20 µM | Kd (HLA-A*23:01; [9]): ≥ 20 µM | Kd (HLA-B*51:01; [9]): ≥ 20 µM | Kd (HLA-B*57:01; [9]): ≥ 20 µM | Kd (HLA-A*68:02; [9]): ≥ 20 µM | Kd (HLA-A*02:19; [9]): ≥ 20 µM | Kd (HLA-A*26:01; [9]): ≥ 20 µM | Kd (HLA-A*02:11; [9]): ≥ 20 µM | Kd (HLA-B*15:01 [2]; [9]): ≥ 20 µM | Kd (HLA-A*29:02; [9]): 0.189 µM | Kd (HLA-B*18:01; [9]): ≥ 20 µM

Kd (HLA-A*24:02): ≥ 20 µM | Kd (HLA-A*03:01; [10]): 0.291 µM | Kd (HLA-A*11:01): 0.0306 µM | Kd (HLA-B*40:01): ≥ 20 µM | Kd (HLA-B*58:01): 1.12 µM | Kd (HLA-B*08:01): ≥ 20 µM | Kd (HLA-A*69:01; [10]): ≥ 20 µM | Kd (HLA-B*07:02 [6]): ≥ 20 µM | Kd (HLA-A*01:01): ≥ 20 µM | Kd (HLA-A*31:01): 1.26 µM | Kd (HLA-A*30:01): ≥ 20 µM | Kd (HLA-B*27:05): ≥ 20 µM | Kd (HLA-A*26:01; [10]): ≥ 20 µM | Kd (HLA-B*15:01 [2]; [10]): 0.11 µM
Sequence: AVFDGCVVY
